Reference: publication PMC4480679 (Biochemistry, 2015)

Molecular target: T1, PhnI-his (E. coli, UniProt P16687 1-354)
T1 sequence (looked up): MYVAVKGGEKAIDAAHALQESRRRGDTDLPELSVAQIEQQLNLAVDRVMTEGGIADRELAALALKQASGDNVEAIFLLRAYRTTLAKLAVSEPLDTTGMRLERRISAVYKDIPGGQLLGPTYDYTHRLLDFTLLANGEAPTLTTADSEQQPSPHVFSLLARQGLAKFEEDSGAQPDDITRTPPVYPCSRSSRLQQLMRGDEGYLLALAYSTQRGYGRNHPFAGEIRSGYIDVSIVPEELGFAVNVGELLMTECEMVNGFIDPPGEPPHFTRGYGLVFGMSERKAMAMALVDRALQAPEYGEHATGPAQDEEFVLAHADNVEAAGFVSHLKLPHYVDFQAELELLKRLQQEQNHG
Experiment: N-terminal Edman sequencing of the purified complex

B1: PhnG (natural protein, E. coli, UniProt P16685 1-150, looked up)
chain: MHADTATRQHWMSVLAHSQPAELAARLNALNITADYEVIRAAETGLVQIQARMGGTGERFFAGDATLTRAAVRLTDGTLGYSWVQGRDKQHAERCALIDALMQQSRHFQNLSETLIAPLDADRMARIAARQAEVNASRVDFFTMVRGDNA
For B1, the “stoichiometry N” value was 0.9 ± 0.1 PhnG per PhnI.
